The Human Domainome abundance scans (Beltran et al. 2025)
± gives the uncertainty stated by the source.

B1: Segment polarity protein dishevelled homolog DVL-3, residues 2 to 81; numbered along this chain, Q92997 (parent)
chain: GETKIIYHLDGQETPYLVKLPLPAERVTLADFKGVLQRPSYKFFFKSMDDDFGVVKEEISDDNAKLPCFNGRVVSWLVSA

Variants of: B1
Experiment: abundance fitness (aPCA) (normalised: wild type 0, dead -1); higher = more abundant; growth selection in yeast, the domain comes from the species named
Conditions: Homo sapiens

Variant	abundance fitness
GETKIIYHLDGQETPYLVKLPLPAERVTLADFKGVLQRPSYKFFFKSMDDDKGVVKEEISDDNAKLPCFNGRVVSWLVSA [F52K]	0.604 ± 0.051
GETKIIYHLDGQETPYLVKLPLPAERVTLADFKGVLQRPSYKFFFKSMDDDRGVVKEEISDDNAKLPCFNGRVVSWLVSA [F52R]	0.618 ± 0.048
GETKIIYHLDGQETPYLVKLPLPAERVTLADFKGVLQRPSYKFFFKSMDDDEGVVKEEISDDNAKLPCFNGRVVSWLVSA [F52E]	0.335 ± 0.071
GETKIIYHLDGQETPYLVKLPLPAERVTLADFKGVLQRPSYKFFFKSMDDDLGVVKEEISDDNAKLPCFNGRVVSWLVSA [F52L]	0.249 ± 0.042
GETKIIYHLDGQETPYLVKLPLPAERVTLADFKGVLQRPSYKFFFKSMDDDTGVVKEEISDDNAKLPCFNGRVVSWLVSA [F52T]	0.183 ± 0.048
GETKIIYHLDGQETPYLVKLPLPAERVTLADFKGVLQRPSYKFFFKSMDDDQGVVKEEISDDNAKLPCFNGRVVSWLVSA [F52Q]	0.268 ± 0.057
GETKIIYHLDGQETPYLVKLPLPAERVTLADFKGVLQRPSYKFFFKSMDDDHGVVKEEISDDNAKLPCFNGRVVSWLVSA [F52H]	0.32 ± 0.065
GETKIIYHLDGQETPYLVKLPLPAERVTLADFKGVLQRPSYKFFFKSMDDDMGVVKEEISDDNAKLPCFNGRVVSWLVSA [F52M]	0.156 ± 0.056
GETKIIYHLDGQETPYLVKLPLPAERVTLADFKGVLQRPSYKFFFKSMDDDYGVVKEEISDDNAKLPCFNGRVVSWLVSA [F52Y]	-0.063 ± 0.082
GETKIIYHLDGQETPYLVKLPLPAERVTLADFKGVLQRPSYKFFFKSMDDDIGVVKEEISDDNAKLPCFNGRVVSWLVSA [F52I]	0.036 ± 0.077
GETKIIYHLDGQETPYLVKLPLPAERVTLADFKGVLQRPSYKFFFKSMDDDAGVVKEEISDDNAKLPCFNGRVVSWLVSA [F52A]	0.263 ± 0.056
GETKIIYHLDGQETPYLVKLPLPAERVTLADFKGVLQRPSYKFFFKSMDDDSGVVKEEISDDNAKLPCFNGRVVSWLVSA [F52S]	0.37 ± 0.045
GETKIIYHLDGQETPYLVKLPLPAERVTLADFKGVLQRPSYKFFFKSMDDDGGVVKEEISDDNAKLPCFNGRVVSWLVSA [F52G]	0.781 ± 0.057
GETKIIYHLDGQETPYLVKLPLPAERVTLADFKGVLQRPSYKFFFKSMDDDVGVVKEEISDDNAKLPCFNGRVVSWLVSA [F52V]	0.048 ± 0.061
GETKIIYHLDGQETPYLVKLPLPAERVTLADFKGVLQRPSYKFFFKSMDDDCGVVKEEISDDNAKLPCFNGRVVSWLVSA [F52C]	0.351 ± 0.086
GETKIIYHLDGQETPYLVKLPLPAERVTLADFKGVLQRPSYKFFFKSMDDTFGVVKEEISDDNAKLPCFNGRVVSWLVSA [D51T]	0.166 ± 0.067
GETKIIYHLDGQETPYLVKLPLPAERVTLADFKGVLQRPSYKFFFKSMDDWFGVVKEEISDDNAKLPCFNGRVVSWLVSA [D51W]	-0.824 ± 0.24
GETKIIYHLDGQETPYLVKLPLPAERVTLADFKGVLQRPSYKFFFKSMDDLFGVVKEEISDDNAKLPCFNGRVVSWLVSA [D51L]	-0.32 ± 0.077
GETKIIYHLDGQETPYLVKLPLPAERVTLADFKGVLQRPSYKFFFKSMDDIFGVVKEEISDDNAKLPCFNGRVVSWLVSA [D51I]	-0.202 ± 0.094
GETKIIYHLDGQETPYLVKLPLPAERVTLADFKGVLQRPSYKFFFKSMDDRFGVVKEEISDDNAKLPCFNGRVVSWLVSA [D51R]	0.224 ± 0.059
GETKIIYHLDGQETPYLVKLPLPAERVTLADFKGVLQRPSYKFFFKSMDDSFGVVKEEISDDNAKLPCFNGRVVSWLVSA [D51S]	0.072 ± 0.056
GETKIIYHLDGQETPYLVKLPLPAERVTLADFKGVLQRPSYKFFFKSMDDEFGVVKEEISDDNAKLPCFNGRVVSWLVSA [D51E]	-0.074 ± 0.11
GETKIIYHLDGQETPYLVKLPLPAERVTLADFKGVLQRPSYKFFFKSMDDMFGVVKEEISDDNAKLPCFNGRVVSWLVSA [D51M]	-0.279 ± 0.12

Variant	abundance fitness
GETKIIYHLDGQETPYLVKLPLPAERVTLADFKGVLQRPSYKFFFKSMDDYFGVVKEEISDDNAKLPCFNGRVVSWLVSA [D51Y]	-0.224 ± 0.097
GETKIIYHLDGQETPYLVKLPLPAERVTLADFKGVLQRPSYKFFFKSMDDPFGVVKEEISDDNAKLPCFNGRVVSWLVSA [D51P]	0.057 ± 0.073
GETKIIYHLDGQETPYLVKLPLPAERVTLADFKGVLQRPSYKFFFKSMDDAFGVVKEEISDDNAKLPCFNGRVVSWLVSA [D51A]	0.022 ± 0.07
GETKIIYHLDGQETPYLVKLPLPAERVTLADFKGVLQRPSYKFFFKSMDDNFGVVKEEISDDNAKLPCFNGRVVSWLVSA [D51N]	0.25 ± 0.063
GETKIIYHLDGQETPYLVKLPLPAERVTLADFKGVLQRPSYKFFFKSMDDKFGVVKEEISDDNAKLPCFNGRVVSWLVSA [D51K]	0.197 ± 0.079
GETKIIYHLDGQETPYLVKLPLPAERVTLADFKGVLQRPSYKFFFKSMDDQFGVVKEEISDDNAKLPCFNGRVVSWLVSA [D51Q]	0.158 ± 0.084
GETKIIYHLDGQETPYLVKLPLPAERVTLADFKGVLQRPSYKFFFKSMDDCFGVVKEEISDDNAKLPCFNGRVVSWLVSA [D51C]	-0.191 ± 0.11
GETKIIYHLDGQETPYLVKLPLPAERVTLADFKGVLQRPSYKFFFKSMDDVFGVVKEEISDDNAKLPCFNGRVVSWLVSA [D51V]	-0.113 ± 0.077
GETKIIYHLDGQETPYLVKLPLPAERVTLADFKGVLQRPSYKFFFKSMDDFFGVVKEEISDDNAKLPCFNGRVVSWLVSA [D51F]	-0.198 ± 0.11
GETKIIYHLDGQETPYLVKLPLPAERVTLADFKGVLQRPSYKFFFKSMDDGFGVVKEEISDDNAKLPCFNGRVVSWLVSA [D51G]	-0.004 ± 0.079
GETKIIYHLDGQETPYLVKLPLPAERVTLADFKGVLQRPSYKFFFKSMDDHFGVVKEEISDDNAKLPCFNGRVVSWLVSA [D51H]	0.058 ± 0.079
GETKIIYHLDGQETPYLVKLPLPAERVTLADFKGVLQRPSYKFFFKSMDPDFGVVKEEISDDNAKLPCFNGRVVSWLVSA [D50P]	-0.016 ± 0.06
GETKIIYHLDGQETPYLVKLPLPAERVTLADFKGVLQRPSYKFFFKSMDWDFGVVKEEISDDNAKLPCFNGRVVSWLVSA [D50W]	-0.445 ± 0.15
GETKIIYHLDGQETPYLVKLPLPAERVTLADFKGVLQRPSYKFFFKSMDMDFGVVKEEISDDNAKLPCFNGRVVSWLVSA [D50M]	-0.329 ± 0.1
GETKIIYHLDGQETPYLVKLPLPAERVTLADFKGVLQRPSYKFFFKSMDIDFGVVKEEISDDNAKLPCFNGRVVSWLVSA [D50I]	-0.421 ± 0.12
GETKIIYHLDGQETPYLVKLPLPAERVTLADFKGVLQRPSYKFFFKSMDSDFGVVKEEISDDNAKLPCFNGRVVSWLVSA [D50S]	0.089 ± 0.048
GETKIIYHLDGQETPYLVKLPLPAERVTLADFKGVLQRPSYKFFFKSMDEDFGVVKEEISDDNAKLPCFNGRVVSWLVSA [D50E]	-0.184 ± 0.13
GETKIIYHLDGQETPYLVKLPLPAERVTLADFKGVLQRPSYKFFFKSMDLDFGVVKEEISDDNAKLPCFNGRVVSWLVSA [D50L]	-0.475 ± 0.069
GETKIIYHLDGQETPYLVKLPLPAERVTLADFKGVLQRPSYKFFFKSMDYDFGVVKEEISDDNAKLPCFNGRVVSWLVSA [D50Y]	-0.287 ± 0.095
GETKIIYHLDGQETPYLVKLPLPAERVTLADFKGVLQRPSYKFFFKSMDFDFGVVKEEISDDNAKLPCFNGRVVSWLVSA [D50F]	-0.645 ± 0.15
GETKIIYHLDGQETPYLVKLPLPAERVTLADFKGVLQRPSYKFFFKSMDHDFGVVKEEISDDNAKLPCFNGRVVSWLVSA [D50H]	-0.188 ± 0.082
GETKIIYHLDGQETPYLVKLPLPAERVTLADFKGVLQRPSYKFFFKSMDKDFGVVKEEISDDNAKLPCFNGRVVSWLVSA [D50K]	0.131 ± 0.083
GETKIIYHLDGQETPYLVKLPLPAERVTLADFKGVLQRPSYKFFFKSMDQDFGVVKEEISDDNAKLPCFNGRVVSWLVSA [D50Q]	-0.041 ± 0.078

Variant	abundance fitness
GETKIIYHLDGQETPYLVKLPLPAERVTLADFKGVLQRPSYKFFFKSMDNDFGVVKEEISDDNAKLPCFNGRVVSWLVSA [D50N]	-0.079 ± 0.078
GETKIIYHLDGQETPYLVKLPLPAERVTLADFKGVLQRPSYKFFFKSMDCDFGVVKEEISDDNAKLPCFNGRVVSWLVSA [D50C]	-0.263 ± 0.13
GETKIIYHLDGQETPYLVKLPLPAERVTLADFKGVLQRPSYKFFFKSMDGDFGVVKEEISDDNAKLPCFNGRVVSWLVSA [D50G]	0.069 ± 0.07
GETKIIYHLDGQETPYLVKLPLPAERVTLADFKGVLQRPSYKFFFKSMDTDFGVVKEEISDDNAKLPCFNGRVVSWLVSA [D50T]	-0.074 ± 0.062
GETKIIYHLDGQETPYLVKLPLPAERVTLADFKGVLQRPSYKFFFKSMDDDFRVVKEEISDDNAKLPCFNGRVVSWLVSA [G53R]	0.382 ± 0.036
GETKIIYHLDGQETPYLVKLPLPAERVTLADFKGVLQRPSYKFFFKSMDDDFIVVKEEISDDNAKLPCFNGRVVSWLVSA [G53I]	-0.501 ± 0.19
GETKIIYHLDGQETPYLVKLPLPAERVTLADFKGVLQRPSYKFFFKSMDDDFMVVKEEISDDNAKLPCFNGRVVSWLVSA [G53M]	-0.032 ± 0.069
GETKIIYHLDGQETPYLVKLPLPAERVTLADFKGVLQRPSYKFFFKSMDDDFSVVKEEISDDNAKLPCFNGRVVSWLVSA [G53S]	0.153 ± 0.05
GETKIIYHLDGQETPYLVKLPLPAERVTLADFKGVLQRPSYKFFFKSMDDDFPVVKEEISDDNAKLPCFNGRVVSWLVSA [G53P]	-0.211 ± 0.071
GETKIIYHLDGQETPYLVKLPLPAERVTLADFKGVLQRPSYKFFFKSMDDDFVVVKEEISDDNAKLPCFNGRVVSWLVSA [G53V]	-0.005 ± 0.046
GETKIIYHLDGQETPYLVKLPLPAERVTLADFKGVLQRPSYKFFFKSMDDDFYVVKEEISDDNAKLPCFNGRVVSWLVSA [G53Y]	0.223 ± 0.14
GETKIIYHLDGQETPYLVKLPLPAERVTLADFKGVLQRPSYKFFFKSMDDDFQVVKEEISDDNAKLPCFNGRVVSWLVSA [G53Q]	0.327 ± 0.055
GETKIIYHLDGQETPYLVKLPLPAERVTLADFKGVLQRPSYKFFFKSMDDDFEVVKEEISDDNAKLPCFNGRVVSWLVSA [G53E]	0.209 ± 0.051
GETKIIYHLDGQETPYLVKLPLPAERVTLADFKGVLQRPSYKFFFKSMDDDFAVVKEEISDDNAKLPCFNGRVVSWLVSA [G53A]	0.096 ± 0.042
GETKIIYHLDGQETPYLVKLPLPAERVTLADFKGVLQRPSYKFFFKSMDDDFWVVKEEISDDNAKLPCFNGRVVSWLVSA [G53W]	-0.458 ± 0.085
GETKIIYHLDGQETPYLVKLPLPAERVTLADFKGVLQRPSYKFFFKSMDDDFNVVKEEISDDNAKLPCFNGRVVSWLVSA [G53N]	0.563 ± 0.093
GETKIIYHLDGQETPYLVKLPLPAERVTLADFKGVLQRPSYKFFFKSMDDDFHVVKEEISDDNAKLPCFNGRVVSWLVSA [G53H]	0.358 ± 0.1
GETKIIYHLDGQETPYLVKLPLPAERVTLADFKGVLQRPSYKFFFKSMDDDFCVVKEEISDDNAKLPCFNGRVVSWLVSA [G53C]	0.2 ± 0.065
GETKIIYHLDGQETPYLVKLPLPAERVTLADFKGVLQRPSYKFFFKSMDDDFFVVKEEISDDNAKLPCFNGRVVSWLVSA [G53F]	-0.362 ± 0.12
GETKIIYHLDGQETPYLVKLPLPAERVTLADFKGVLQRPSYKFFFKSMDDDFKVVKEEISDDNAKLPCFNGRVVSWLVSA [G53K]	0.482 ± 0.052
GETKIIYHLDGQETPYLVKLPLPAERVTLADFKGVLQRPSYKFFFKSMDDDFLVVKEEISDDNAKLPCFNGRVVSWLVSA [G53L]	-0.321 ± 0.058
GETKIIYHLDGQETPYLVKLPLPAERVTLADFKGVLQRPSYKFFFKSMDDDFTVVKEEISDDNAKLPCFNGRVVSWLVSA [G53T]	0.092 ± 0.058
GETKIIYHLDGQETPYLVKLPLPAERVTLADFKGVLQRPSYKFFFKSMDDDFGAVKEEISDDNAKLPCFNGRVVSWLVSA [V54A]	0.005 ± 0.056
